Assay results: patent publication US20260209301A1, “Galanin-2 Receptor Agonists” (LIFEARC, priority 2022, published 2026)
Marks after values point to notes of the source that are not given here.

Tests used:
GALR2 [1] = molecular target: T1, GALR2 (Homo sapiens, UniProt O43603); assay: β-arrestin recruitment, PathHunter CHO-K1 GALR2 cells; type: cell-based; details: Table 2; mean +/− standard deviation, n ≥ 3
T1 sequence (O43603 1-387): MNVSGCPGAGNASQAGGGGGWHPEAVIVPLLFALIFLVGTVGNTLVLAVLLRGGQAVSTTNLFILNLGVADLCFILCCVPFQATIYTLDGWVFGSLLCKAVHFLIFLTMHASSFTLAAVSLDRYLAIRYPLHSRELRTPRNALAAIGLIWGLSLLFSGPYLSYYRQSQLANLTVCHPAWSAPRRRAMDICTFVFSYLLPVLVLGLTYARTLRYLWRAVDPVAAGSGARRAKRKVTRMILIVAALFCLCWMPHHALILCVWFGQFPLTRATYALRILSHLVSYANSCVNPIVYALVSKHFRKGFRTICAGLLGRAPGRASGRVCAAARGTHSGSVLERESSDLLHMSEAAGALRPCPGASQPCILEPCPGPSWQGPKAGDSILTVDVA
Description: Ligands were prepared at half log dilutions using cell plating reagent 2. 5 μl of each ligand was added to cells and plates incubated at 37° C. for 90 minutes. DiscoverX PathHunter detection kit (DiscoverX, USA) was added to cells as described my manufacturer's guidelines and plates incubated for 60 minutes at room temperature in the dark. Chemiluminescent signal was measured using the PHERAstar FS (BMG, Germany).

GALR2 [2] = molecular target: T1, GALR2; assay: Calcium assay, CHO GalR2 cells (FLIPR); details: mean +/− standard deviation
Description: CHO GalR2 cells were plated at 10,000 cells per well in black clear bottom plates (corning, USA) and incubated overnight at 37° C. with 5% CO2. […] Ligands were prepared at a 5× concentration and added to cells using the FLIPR (Molecular Devices, USA). Baseline was typically 20 seconds before ligand addition. […] For analysis, fluorescence was normalised to pre-addition baseline and peak fluorescence used for all quantification.
In brief, a panel of functional cell-based microtiter-plate assays were developed using recombinant GalR1 and GalR2 receptors stably expressed in CHO cells. […] Nominally this equated to 10 serial (~3fold) dilutions with highest concentrations of 10-1 μM as appropriate.
In addition to generating both potency and efficacy estimates, the latter being expressed relative to native galanin, both G-protein and non-G-Protein signalling pathways were measured.

GALR3 = molecular target: T2, GALR3 (Homo sapiens, UniProt O60755); assay: Luciferase reporter gene assay (SRE), HEK293 Gqi cells; type: cell-based
T2 construct: expressed in transfected cells; host or cells: genetically modified HEK293 Gqi cells, transient
T2 sequence (O60755 1-368): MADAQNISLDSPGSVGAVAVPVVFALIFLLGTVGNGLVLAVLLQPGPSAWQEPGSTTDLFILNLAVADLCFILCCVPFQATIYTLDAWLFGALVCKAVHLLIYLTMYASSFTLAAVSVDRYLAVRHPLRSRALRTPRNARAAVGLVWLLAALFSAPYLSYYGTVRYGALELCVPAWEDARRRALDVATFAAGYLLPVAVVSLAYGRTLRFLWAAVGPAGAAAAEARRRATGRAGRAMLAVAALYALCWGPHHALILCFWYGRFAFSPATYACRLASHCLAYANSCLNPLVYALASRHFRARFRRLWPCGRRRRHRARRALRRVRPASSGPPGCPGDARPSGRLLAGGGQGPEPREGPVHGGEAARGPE
Description: GalR3 activity was measured, alongside GalR1 and GalR2, using a luciferase reporter assay. A reporter plasmid and a receptor plasmid, were transiently transfected into the target cell line. The reporter plasmid contains a serum response element (SRE) or a nuclear factor of activated T-cells response element (NFAT-RE) which is coupled to a luciferase transcript and induces expression of the luciferase upon a specific G-protein (Gai uses SRE; Gaq uses NFAT-RE) activation. The target receptor is constantly expressed after cell transfection. For GALR1 and GALR3 screening, genetically modified HEK293 Gqi cells were transiently transfected with the SRE reporter and the receptor (GALR1 and GALR3) plasmids. For GALR2 screening, HEK293 cells were transiently transfected with the NFAT-RE reporter and the receptor (GALR2) plasmid. […] The luciferase activity was analyzed with the Bright-Glo Luciferase Assay (Promega) in an EnSpire plate reader.
Therefore, to measure activity at the GalR3 receptor a reporter gene assay was used. In this system MAP/ERK signalling is used to measure receptor activity. Activation of Gqi coupled receptors leads to downstream activation of ERK1/2. The activated ERK translocates to the nucleus where it phosphorylates and activates transcription factors, which lead to the binding of Serum response element (SRE). In this assay SRE activation induces expression of a luciferase reporter gene. […] To ensure this effect was not an artifact of the reporter gene assay, GalR1 and GalR2 reporter assays (using SRE and NFAT-RE respectively) were also run.

mouse GalR2 = molecular target: T3, mouse GalR2 (Mus musculus, UniProt O88854); assay: Calcium assay at orthologue receptor; type: cell-based; details: Table 8; Calcium assays; mean +/− standard deviation
T3 sequence (O88854 1-371): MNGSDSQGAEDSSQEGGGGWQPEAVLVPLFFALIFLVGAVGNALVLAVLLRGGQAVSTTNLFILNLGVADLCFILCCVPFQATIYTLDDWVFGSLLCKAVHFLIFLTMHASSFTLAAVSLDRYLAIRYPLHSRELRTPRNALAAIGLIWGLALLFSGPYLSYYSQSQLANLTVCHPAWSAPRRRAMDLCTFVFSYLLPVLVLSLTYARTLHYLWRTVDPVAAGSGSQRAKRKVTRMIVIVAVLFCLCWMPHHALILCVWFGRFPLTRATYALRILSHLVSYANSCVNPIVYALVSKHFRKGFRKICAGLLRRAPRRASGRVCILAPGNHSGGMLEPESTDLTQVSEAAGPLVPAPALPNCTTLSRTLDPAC
From the text: (§1) These species were chosen as they represent potential downstream in vivo models to be used. Within native galanin amino acid residues 1-15 are conserved across species, we would therefore expect the Gal FC fusions comprising amino acids 2 to 13 to retain GalR2 activity in these species. Calcium imaging was used to define receptor activity.

GALR2 [3] = molecular target: T1, GALR2; assay: Radioligand binding, [125I]galanin displacement on CHO GalR2 membranes; parameters: expressed in transfected cells; host or cells: CHO (Flp-In, pcDNA5/FRT); details: recombinant GalR2 membranes, FIG. 3
Description: Cell membrane homogenates (4 μg protein—from CHO cells expressing the GalR2 receptor) were incubated for 120 minutes at 22° C. with 0.05 nM [^125I] galanin in the absence or presence of test compound in a buffer containing 25 mM Tris-HCl (pH 7.4, 10 mM MgCl2 and 0.5% BSA. Non-specific binding was determined in the presence of 1 μM porcine galanin. Following incubation, samples were filtered rapidly under vacuum through glass fiber filters (GF/B, Packard) pre-soaked with 0.3% PEI and rinsed several times with ice cold 50 mM Tris-HCl using a 96 sample cell harvester (Unifilter, Packard). The filters are dried then counted for radioactivity in a scintillation counter (Topcount, Packard) using a scintillation cocktail (Microscint 0), Packard). The results are expressed as a percent inhibition of the control radioligand specific binding. The standard reference compound is porcine galanin which is tested in each experiment at several concentrations to obtain a competition curve from which its IC50 is generated.
Briefly, cell overexpressing recombinant GalR2 were used to for crude membrane preparations. Competition style binding assays were then used to monitor displacement of [125I]-Galanin using a range of concentrations of Gal-FC fusion. After a period of incubation data were expressed relative the maximum specific Galanin bound.

rat GalR2 = molecular target: T4, rat GalR2 (Rattus norvegicus, UniProt O08726); assay: Calcium assay at orthologue receptor; type: cell-based; details: Table 8; Calcium assays; mean +/− standard deviation
T4 sequence (O08726 1-372): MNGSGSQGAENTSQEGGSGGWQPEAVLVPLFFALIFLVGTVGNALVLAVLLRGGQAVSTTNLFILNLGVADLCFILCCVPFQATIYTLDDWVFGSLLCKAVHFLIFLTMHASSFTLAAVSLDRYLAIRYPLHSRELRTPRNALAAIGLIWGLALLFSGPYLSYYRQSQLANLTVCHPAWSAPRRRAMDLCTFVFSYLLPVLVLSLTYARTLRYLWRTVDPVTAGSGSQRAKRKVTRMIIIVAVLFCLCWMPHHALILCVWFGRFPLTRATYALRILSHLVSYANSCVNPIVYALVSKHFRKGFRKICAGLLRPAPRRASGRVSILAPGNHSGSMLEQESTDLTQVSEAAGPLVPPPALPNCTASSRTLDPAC
From the text: These species were chosen as they represent potential downstream in vivo models to be used. […] Calcium imaging was used to define receptor activity.

cynomolgus GalR2 = assay: Calcium assay at orthologue receptor; type: cell-based, Macaca fascicularis; details: Table 8; Calcium assays; mean +/− standard deviation
From the text: as §1

GalR1 = molecular target: T5, GalR1 (Homo sapiens, UniProt P47211); assay: Ala scanning of Gal2-13 peptides, activity at GalR1; type: cell-based; details: peptides vs Gal2-13, FIG. 5
T5 sequence (P47211 1-349): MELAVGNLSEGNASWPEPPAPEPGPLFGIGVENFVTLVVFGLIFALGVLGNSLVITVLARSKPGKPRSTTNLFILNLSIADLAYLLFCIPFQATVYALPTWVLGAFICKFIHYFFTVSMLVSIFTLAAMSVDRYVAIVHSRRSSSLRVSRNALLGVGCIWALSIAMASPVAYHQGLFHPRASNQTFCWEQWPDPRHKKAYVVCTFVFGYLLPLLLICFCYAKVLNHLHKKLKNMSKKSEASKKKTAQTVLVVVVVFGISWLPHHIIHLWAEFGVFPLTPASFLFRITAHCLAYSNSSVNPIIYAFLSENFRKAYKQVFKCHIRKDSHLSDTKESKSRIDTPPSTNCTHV
From the text: Replacement of residues 2, 3, 5, 6, 9, 10, 11, 12 (corresponding to W, T, L, S, Y, L, L, G) led to a significant decrease in activity at GalR2 (FIG. 5). Replacement of residues 4, 8, 13 (corresponding to N, G, P) caused no decrease in activity. […] Of note, none of the substitutions increased GalR2 or GalR1 agonistic activity.

Substance	GalR2 Beta Arrestin, mean pEC50 (GALR2 [1])	GalR2 Calcium, mean pEC50 (GALR2 [2]; Table 2, n ≥ 3)	GalR2 activity (calcium assay), warhead length (GALR2 [2]; Table 6, highest concentration tested 10 μM)	activity at GalR3 (in words) (GALR3)	Mouse GalR2 activity (mouse GalR2)	pIC50, displacement of [125I]-Galanin binding (GALR2 [3])	Rat GalR2 activity (rat GalR2)	Cynomolgus GalR2 activity (cynomolgus GalR2)	effect of Ala substitution on GalR1 activity (GalR1)
Gal2-12FC: galanin 2-12, AEAAAKEAAAKA linker, human IgG1 FC; SEQ ID NO: 25	7.6 +/− 0.2*	6.3 +/− 0.3	6.6 +/− 0.0	no measurable activity	6.8 +/− 0.1	7.24	6.6 +/− 0.4	7.7 +/− 0.4	
Gal2-13ala8: ala scanning peptide WTLNSAAYLLGP, SEQ ID NO: 43									reduced GalR1 activity
